Data reported in patent US20240035036A1 (UNIVERSITE DE GENEVE, published 2024).

T1: FljK flagellin protein from Caulobacter crescentus
T1 chain: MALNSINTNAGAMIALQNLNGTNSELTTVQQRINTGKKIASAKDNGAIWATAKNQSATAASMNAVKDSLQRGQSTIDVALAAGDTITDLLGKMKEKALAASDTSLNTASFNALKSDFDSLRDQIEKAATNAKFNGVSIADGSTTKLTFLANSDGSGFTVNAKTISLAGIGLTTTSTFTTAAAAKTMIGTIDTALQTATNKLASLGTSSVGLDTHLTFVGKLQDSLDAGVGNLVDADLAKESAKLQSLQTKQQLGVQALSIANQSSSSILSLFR

T2: Flagellin Modification Protein (FlmG) from Caulobacter crescentus (Caulobacter crescentus, UniProt P21296 1-596)
T2 construct: Natural full-length glycosyltransferase, expressed in cells (C. crescentus, S. fredii NGR234, E. coli); It has an N-terminal TPR domain and a C-terminal GT-B-like glycosyltransferase domain; also called FlbA; CC_1457
T2 sequence: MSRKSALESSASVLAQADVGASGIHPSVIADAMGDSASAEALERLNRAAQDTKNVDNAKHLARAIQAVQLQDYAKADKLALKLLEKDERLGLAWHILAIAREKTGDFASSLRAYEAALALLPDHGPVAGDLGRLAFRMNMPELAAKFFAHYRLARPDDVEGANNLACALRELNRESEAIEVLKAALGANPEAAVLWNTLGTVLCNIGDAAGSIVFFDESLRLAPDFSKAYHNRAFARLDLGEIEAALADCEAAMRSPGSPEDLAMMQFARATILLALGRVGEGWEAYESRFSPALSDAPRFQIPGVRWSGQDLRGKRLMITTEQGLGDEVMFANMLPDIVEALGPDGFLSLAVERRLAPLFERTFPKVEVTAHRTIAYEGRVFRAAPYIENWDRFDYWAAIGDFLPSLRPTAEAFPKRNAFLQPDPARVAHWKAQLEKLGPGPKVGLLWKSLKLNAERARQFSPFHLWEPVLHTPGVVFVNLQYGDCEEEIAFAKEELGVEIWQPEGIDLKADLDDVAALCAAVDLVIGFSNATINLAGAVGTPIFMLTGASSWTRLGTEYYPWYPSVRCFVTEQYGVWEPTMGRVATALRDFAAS

B1: Flagellin Modification Protein (FlmG) from Caulobacter crescentus (protein)
chain: T2 sequence
B2: FljK flagellin protein from Caulobacter crescentus (other)
chain: T1 chain
notes: In the glycosylation experiments it was expressed unfused in cells; also called CC_1461

Experiments:
[1] = biological target: T1, FljK flagellin protein from Caulobacter …
[2] = biological target: T2, Flagellin Modification Protein (FlmG) …; assay: summary of example 1 (BACTH and domain analysis)

Binder | FljK glycosylation (migration on anti-FljK immunoblot) in E. coli co-expressing FljK, FlmG and the synthetic flm operon [1] | flagellin modification (SDS-PAGE mobility shift of FljK by immunoblot) on co-expression in S. fredii NGR234 [1] | binding result [2]
B1 | in the presence of pUCITD-flm FljK migration is shifted towards higher molecular weight, as in Caulobacter crescentus wild-type (WT) cells | upon co-expression of FlmG, FljK shifted to a species with higher molecular mass | 
B2 |  |  | binds
